From publication PMC7473855

Biological target: SARS-CoV-2 prefusion-stabilized spike ectodomain with a C-terminal T4 fibritin trimerization motif (SARS-CoV-2) (UniProt P0DTC2)
Assay: cryo-EM structure

Sequence of Ty1 nanobody (VHH) (VHH): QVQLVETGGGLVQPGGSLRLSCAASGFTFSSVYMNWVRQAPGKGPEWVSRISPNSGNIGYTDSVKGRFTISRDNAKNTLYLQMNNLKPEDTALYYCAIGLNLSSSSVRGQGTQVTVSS

Question: How did the stoichiometry N (Ty1 per spike trimer) turn out when Ty1 nanobody (VHH) was run?
Answer: 3
